We go through 25 molecules from patent US20180298070A1, “PEPTIDE COMPOUND” (Takeda Pharmaceutical Company Limited, published 2018).

Non-standard residues stand in square brackets, D forms with d. Groups on a side chain read outwards from the residue. Primed or numbered codes have the meaning given here. No end group written: not given here. *: point of attachment. NMeY = CN[C@@H](Cc1ccc(O)cc1)C(=O)O; αMeF = C[C@](N)(Cc1ccccc1)C(=O)O; Myristoyl = CCCCCCCCCCCCCC(=O)*; Undecanoyl = CCCCCCCCCCC(=O)*; Lauroyl = CCCCCCCCCCCC(=O)*; Decanoyl = CCCCCCCCCC(=O)*; dIva = CC[C@@](C)(N)C(=O)O; Iva = CC[C@](C)(N)C(=O)O; PEG2′ = not defined here; PEG4′ = not defined here; Hexanoyl = CCCCCC(=O)*; Aib = CC(C)(N)C(=O)O

The target in assay [1] is T1, human GIPR (human), P48546.
T1 chain: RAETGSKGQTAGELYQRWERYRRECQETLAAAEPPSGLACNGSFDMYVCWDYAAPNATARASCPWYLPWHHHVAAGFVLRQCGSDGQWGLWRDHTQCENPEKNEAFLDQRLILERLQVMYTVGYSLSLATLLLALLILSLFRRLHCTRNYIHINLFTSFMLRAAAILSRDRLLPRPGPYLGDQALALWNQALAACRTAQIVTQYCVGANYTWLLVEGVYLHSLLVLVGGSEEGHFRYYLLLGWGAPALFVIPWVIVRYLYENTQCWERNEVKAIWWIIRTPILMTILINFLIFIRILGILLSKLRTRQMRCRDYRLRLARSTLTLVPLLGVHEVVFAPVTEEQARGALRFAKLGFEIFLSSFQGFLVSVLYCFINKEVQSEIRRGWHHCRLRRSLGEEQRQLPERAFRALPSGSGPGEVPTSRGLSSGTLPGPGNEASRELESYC

In assay [2] the target is T2, human GLP-1R (human), P43220.
T2 chain: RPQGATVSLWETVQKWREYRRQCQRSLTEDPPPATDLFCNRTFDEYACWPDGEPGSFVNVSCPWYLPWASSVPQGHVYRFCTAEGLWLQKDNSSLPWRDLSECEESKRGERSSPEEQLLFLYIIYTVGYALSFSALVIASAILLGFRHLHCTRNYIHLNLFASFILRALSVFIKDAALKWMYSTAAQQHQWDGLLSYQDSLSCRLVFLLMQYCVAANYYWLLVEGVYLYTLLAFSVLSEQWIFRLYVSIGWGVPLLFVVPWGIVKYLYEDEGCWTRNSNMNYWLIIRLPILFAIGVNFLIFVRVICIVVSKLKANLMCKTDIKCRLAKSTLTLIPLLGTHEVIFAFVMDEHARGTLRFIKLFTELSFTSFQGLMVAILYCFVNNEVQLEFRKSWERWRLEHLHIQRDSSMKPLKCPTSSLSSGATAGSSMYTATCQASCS

Y[Aib]EGTFISDYSK([PEG2′-Myristoyl])ALDRIAQQDFVNWLLAQRPSSGAPPPSR (ends and bridges not checked) [Compound 186]: the Agonist activity (EC50, M) in assay [1] was 6.4e-12 M; in assay [2], 1.3e-08 M.

Consider Ac-Y[Aib]EGTFISDYSIALDR[Aib]HQ[Aib]NFVNW[Iva]LAQRPSSGAPPPSR (ends and bridges not checked) [Compound 156], for which the Agonist activity (EC50, M) in assay [1] was 4.8e-12 M; in assay [2], over 1e-06 M.

For Y[Aib]EGTFISDYSK([PEG(2)-Lauroyl])ALDRIHQQDFVNWLLAQRPSSGAPPPS (ends and bridges not checked) [Compound 175], the Agonist activity (EC50, M) in assay [1] is 3.5e-12 M; in assay [2], over 1e-06 M.

Turning to Y[Aib]EGTFISDYSK([PEG2′-Decanoyl])ALDRIAQQDFVNWLLAQRPSSGAPPPSR (ends and bridges not checked) [Compound 182], the Agonist activity (EC50, M) in assay [1] was found to be 3.3e-12 M; in assay [2] it was 4.8e-08 M.

For [NMeY][Aib]EGTFISDYSI[dIva]LDRIAQQSFVNWLLAQRPSSGAPPPSR (not fully specified (N-terminus, C-terminus); ends and bridges not checked) [Compound 138], the Agonist activity (EC50, M) in assay [1] is 2.2e-12 M; in assay [2], over 1e-06 M.

Regarding Y[Aib]EGTFISDYSK([PEG(2)-Hexanoyl])ALDRIHQQDFVNWLLAQRPSSGAPPPS (ends and bridges not checked) [Compound 174], the figures for the Agonist activity (EC50, M) in assay [1] and in assay [2] were 4.2e-12 M and over 1e-06 M, respectively.

In the case of [NMeY][Aib]EGTFISDYSIALDRIAQ[Aib]DFVNW[Iva]LAQRPSSGAPPPSR (ends and bridges not checked) [Compound 123], the Agonist activity (EC50, M) in assay [1] was 1.3e-12 M; in assay [2], over 1e-06 M.

Regarding Me-Y[Aib]EGTFISDYSIALDRIAQ[Aib]D[αMeF]VNWLLAQRPSSGAPPPSR (not fully specified (residue 1, C-terminus); ends and bridges not checked) [Compound 135], the Agonist activity (EC50, M) was 1.8e-12 M in assay [1] and over 1e-06 M in assay [2].

With Y[Aib]EGTFISDYSK([PEG2′-Undecanoyl])ALDRIAQQDFVNWLLAQRPSSGAPPPSR (ends and bridges not checked) [Compound 183], the figures for the Agonist activity (EC50, M) in assay [1] and in assay [2] were 3.4e-12 M and 3.3e-08 M, respectively.

With Y[Aib]EGTVVSLYSI[Aib]LDKQAQ[Aib]EFVKWLLKGK([PEG(2)-Pal]) (ends and bridges not checked) [Compound 162], the Agonist activity (EC50, M) is 2.7e-10 M in assay [1] and over 1e-06 M in assay [2].

For [NMeY][Aib]EGTFISDYSI[dIva]LDRIHQQDFVNWLLAQRPSSGAPPPSR (not fully specified (N-terminus, C-terminus); ends and bridges not checked) [Compound 144], the results for the Agonist activity (EC50, M) in assay [1] and in assay [2] were 2.2e-12 M and over 1e-06 M, respectively.

Regarding Me-Y[Aib]EGTFISDYSIALDRIAQ[Aib]S[αMeF]VNW[Iva]LAQRPSSGAPPPSR (not fully specified (residue 1, C-terminus); ends and bridges not checked) [Compound 125], the Agonist activity (EC50, M) in assay [1] was 1.8e-12 M; in assay [2] it was over 1e-06 M.

Take Y[Aib]EGTFISDYSK([PEG(4)-Pal])ALDRIAQQDFVNWLLAQRPSSGAPPPSR (ends and bridges not checked) [Compound 190]: the Agonist activity (EC50, M) is 2.1e-11 M in assay [1] and over 1e-06 M in assay [2].

For the molecule [NMeY][Aib]EGTFISDYSI[dIva]LDR[dIva]AQ[dIva]NFVNWLLAQRPSSGAPPPSR (not fully specified (N-terminus, C-terminus); ends and bridges not checked) [Compound 103], the Agonist activity (EC50, M) is 1.3e-12 M in assay [1] and over 1e-06 M in assay [2].

For Me-Y[Aib]EGTFISDYSIALDRIAQQNFVNW[Iva]LAQRPSSGAPPPSR (not fully specified (residue 1, C-terminus); ends and bridges not checked) [Compound 133], the Agonist activity (EC50, M) in assay [1] was 1.7e-12 M; in assay [2], over 1e-06 M.

With Ac-Y[Aib]EGTFISDYSIALDRIAQ[Aib]S[αMeF]VNW[Iva]LAQRPSSGAPPPSR (ends and bridges not checked) [Compound 155], the Agonist activity (EC50, M) in assay [1] was 1.7e-12 M; in assay [2], over 1e-06 M.

As to Me-Y[Aib]EGTFISDYSI[dIva]LDRIAQQDFVNWLLAQRPSSGAPPPSR (not fully specified (residue 1, C-terminus); ends and bridges not checked) [Compound 131], the figures for the Agonist activity (EC50, M) in assay [1] and in assay [2] were 1.9e-12 M and over 1e-06 M, respectively.

As for [NMeY][Aib]EGTFISDYSIALDRIHQQD[αMeF]VNWLLAQRPSSGAPPPSR (not fully specified (N-terminus, C-terminus); ends and bridges not checked) [Compound 141], the Agonist activity (EC50, M) in assay [1] was 1.9e-12 M; in assay [2], over 1e-06 M.

With Me-Y[Aib]EGTFISDYSIALDR[Aib]AQ[Aib]SFVNW[Iva]LAQRPSSGAPPPSR (not fully specified (residue 1, C-terminus); ends and bridges not checked) [Compound 126], the Agonist activity (EC50, M) in assay [1] was 2.1e-12 M; in assay [2] it was over 1e-06 M.

On to Y[Aib]EGTFISDYSK([PEG2′-Lauroyl])ALDRIAQQDFVNWLLAQRPSSGAPPPSR (ends and bridges not checked) [Compound 184], for which the results for the Agonist activity (EC50, M) in assay [1] and in assay [2] were 3.6e-12 M and 3e-08 M, respectively.

For [NMeY][Aib]EGTFISDYSIALDRIHQ[Aib]NFVNWLLAQRPSSGAPPPSR (not fully specified (N-terminus, C-terminus); ends and bridges not checked) [Compound 142], the Agonist activity (EC50, M) was 2.3e-12 M in assay [1] and over 1e-06 M in assay [2].

Regarding Y[Aib]EGTFISDYSK([PEG4′-Lauroyl])ALDRIAQQDFVNWLLAQRPSSGAPPPSR (ends and bridges not checked) [Compound 189], the Agonist activity (EC50, M) came out at 6.8e-12 M in assay [1] and 2.7e-08 M in assay [2].

Turning to Y[Aib]EGTFISDYSK([PEG(2)-Pal])ALDRIHQQDFVNWLLAQRPSSGAPPPS (ends and bridges not checked) [Compound 172], the Agonist activity (EC50, M) in assay [1] was 2e-12 M; in assay [2], over 1e-06 M.

Take Me-Y[Aib]EGTFISDYSI[dIva]LDRIHQ[Aib]NFVNW[Iva]LAQRPSSGAPPPSR (not fully specified (residue 1, C-terminus); ends and bridges not checked) [Compound 147]: the Agonist activity (EC50, M) in assay [1] is 1.5e-12 M; in assay [2], over 1e-06 M.

On to Me-Y[Aib]EGTFISDYSIALDRIAQQSFVNWLLAQRPSSGAPPPS (not fully specified (residue 1, C-terminus); ends and bridges not checked) [Compound 129], for which the Agonist activity (EC50, M) in assay [1] was 1.7e-12 M; in assay [2] it was over 1e-06 M.
